What was measured:
[1] = molecular target: the molecule itself; test: MST; Alexa Fluor 488 labelled protein kept constant (SAMwt 70 nM, SAMlg 60 nM), total protein varied (SAMwt 1.1-824 µM, SAMlg 0.2-250 µM); standard buffer pH 6.4, room temperature; fit to a monomer-dimer equilibrium; dimer to monomers
[2] = molecular target: the molecule itself; test: AUC; sedimentation equilibrium, 30 °C, standard buffer (50 mM potassium phosphate, 20 mM NaCl, 0.1 mM EDTA, pH 6.4) without NaN3; three loading concentrations (SAMwt 60, 120, 300 µM; SAMlg 31, 64, 98 µM) at several speeds; global fit to a monomer-dimer equilibrium; dimer to monomers

B1: SLy1 SAM domain construct SAMlg (SLy1 residues G249-E321 preceded by a glycine-proline tag) (domain or fragment, mouse)
chain: GPGKRPKPKTLHELLERIGLEEHTSTLLLNGYQTLEDFKELRETHLNELNIMDPQHRAKLLTAAELLLDYDTGSE
notes: glycine-proline left from the tag after PreScission cleavage; SLy1 (SASH3), murine, UniProtKB Q8K352, residues 249-321; 75 residues; In MST 60 nM of the protein carried amine-reactive Alexa Fluor 488; For DOSY the protein was 15N labelled; also called N-terminally extended SLy1 SAM domain construct; source: E. coli BL21(DE3), GST fusion, purified (Glutathione Sepharose, PreScission cleavage, …)
[1]
  Kd: 5.4 ± 1.4 µM
[2]
  Kd: 2200 nM
  stoichiometry N: 2
